This assay deals with SARS-CoV-2 RBD, truncated version (residues 333–529) (SARS-CoV-2, UniProt P0DTC2). The assay is described as follows: crystal structure. To be noted: both partners purified.

B1: COVA1–16 Fab (Fab, V domains shown)
VH: QVQLVQSGAEVKKPGASVKVSCKASGYTFTSYYMHWVRQAPGQGLEWMGIINSSGGSTSYAQKFQGRVTMTRDTSTSTVYMELSSLRSEDTAVYYCARPPRNYYDRSGYYQRAEYFQHWGQGTLVTVSS
VL: DIQLTQSPSSLSASVGDRVTITCQASQDISNYLNWYQQRPGKAPKLLIYDASNLETGVPSRFSGSGSGTDFTFTISSLQPEDIATYYCQQYDNPPLTFGGGTKLEIK
notes: also called Fab COVA1–16
For the molecule B1, the binding result is “binds”.
